The nature of the data set: yeast display, Sf9 membrane polyspecificity reagent, FACS + sequencing; frameworks hold sequencing errors. The method in brief:
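Nanobodies from a synthetic yeast display library (Saccharomyces cerevisiae BJ5465), induced 36–48 hours with galactose, were stained 1 hour at 4 °C with 10% biotinylated, detergent-solubilized Sf9 membrane reagent, enriched on streptavidin microbeads, then FACS-sorted. Anti-HA (expression) and streptavidin (reagent binding) fluorescence set low and high (top ~1%) gates. Polyreactivity labels come from the gate of origin. Genes were colony-PCR amplified, MiSeq 2 × 250 sequenced and filtered by CDR length.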
Regarding “QVQLVESWGGLVQAGGSLRLSCAASGFIFSRYAMGWYRQAPGKERELVAAISSRGGSTYYADSVKGRFTISRDNAKNTVYLQMNSLKPEDTAVYYCAKSSPTPHYYWGQGTQVTVSS”, the “polyreactivity (PSR sort gate)” value is on record as “high polyreactivity”.

For “QVQLVESWGGLVQAGGSLRLSCAASGFTFLNYAMGWYRQAPGKERELVAAISFSTGRTYYADSVKGRFTISRDNAKNTDYLQMNSLKPEDTAVYYGAAGYWPGYSLTYRGGYWGQGTQVTVSS”, the “polyreactivity (PSR sort gate)” value was “high polyreactivity”.

As for “QVQLVESWGGLVQAGGSLRLSCAASGFTLTPYAMGWYRQAPGKERELVAASRWSGGSTYYADSVKGRFTISRDNAKNTVYLQMNSLKPEDTAVYYCAARYAYRPVNGYKYWGQGTQVTVSS”, the “polyreactivity (PSR sort gate)” value is listed as “high polyreactivity”.

Turning to “QVQLVESWGGLVQAGGSLRLSCAASGGTFGNNDMGWYRQAPGKERELVAAIRSAGTTYYADSVKGRFTISRDNAKNTVYLQMNSLKPEDTAVYYCNADTTGYWSYGFQYYGEDYWGQGTQVTVSS”, the “polyreactivity (PSR sort gate)” value is recorded as “low polyreactivity”.

“QVQLVESWGGLVQAGGSLRLSCAASGINFWVYAMGWYRQAPGQERELVAAISRRGGSTSYADSVKGRFTISRDNAKNTVYLQMKSLKPEDTAVYFCAATTYTHPYGYWGQGTQVTVSS”: the “polyreactivity (PSR sort gate)” value is “high polyreactivity”.

“QVQLVESWGGLVQAGGSLRLSCAASGITFFFYAMGLYRLAPGKERELVASITWEDGSTYYADSVKGRFTISRDNANNTVYLQKNSLKPEDTAVYYCAADFEAGGYSLDYWGQGTQVTVSS”: the “polyreactivity (PSR sort gate)” value is “low polyreactivity”.

As for “QVQLVESWGGLVQAGGSLRLSCAASGITFFTYAMGWYRQAPGKERELVAGISKTGGRSYYADSVKGRFTISRDNSKNTVYLQMNSLKPDDTAVYFCAAYFRSDYGYWGQGNQVTVSS”, the “polyreactivity (PSR sort gate)” value is “high polyreactivity”.

Take “QVQLVESWGGLVQAGGSLRLSCAASGITFLRNTMGWYRQAPGKERELVAAISRGGSTYYADSVKGRFTISRDNAKNTVFLQMKSLKPEDTAVYYCNAPSYVQATDYDYWGQGTQVTVSS”: the “polyreactivity (PSR sort gate)” value is “high polyreactivity”.

With “QVQLVESWGGLVQAGGSLRLSCAASGITFPINTMGWYRQAPGKERELVAGIDWTGGSTYYADSVKGRFTISRDNAKNTVYLQMNSLKPEDTAVYYCAKRSYTGYEYWGQGTQVTVSS”, the “polyreactivity (PSR sort gate)” value is on record as “low polyreactivity”.

For “QVQLVESWGGLVQAGGSLRLSCAASGNTIIRYAMGWYSQAPGKERELVAAISRSGGRTYYADSVKGRFTISRDNAKNTVYLQMNSLKPEDTAVYYCAAKIYIPRGYDYWGQGTQVTVSS”, the “polyreactivity (PSR sort gate)” value was “high polyreactivity”.

As to “QVQLVESWGGLVQAGGSLRLSCAASGRIFGANARGWYRQAPGKERELVATITYGGTSTYYADSVKGRFTISRDNAKNSVYLQLNSLKPEYTADYYCAAASTYPLPYDFWGQGTQVTVSS”, the “polyreactivity (PSR sort gate)” value is “low polyreactivity”.

As to “QVQLVESWGGLVQAGGSLRLSCAASGRIFYKYAMGWYRQAPGKERELVAAISYSGGSTYYADSVKGRFTISRDNAKITVYLQMKSLKQEDTAVDDCNAKPPYGVRSWGDYWGQGTKVTVSS”, the “polyreactivity (PSR sort gate)” value is “low polyreactivity”.

With “QVQLVESWGGLVQAGGSLRLSCAASGRTIEQYAMGWYRQAPGKERELVAAISGSGGSTFYADSVKGRFTISRDNAKNTVYLQMNSLKPEDTAVYYCNAPGDGYLYDHTYDYWGQGTQVTVSS”, the “polyreactivity (PSR sort gate)” value is “low polyreactivity”.

Turning to “QVQLVESWGGLVQAGGSLRLSCAASGSIFDFNGMGCYRQAPGKERELVAAISGGGGSTYYADSVKGRFTISRDNAKNTVYLQMNSLKPEDTAVYYCAAAYSTYRFIYEYWGQATQVTVSS”, the “polyreactivity (PSR sort gate)” value is on record as “high polyreactivity”.

“QVQLVESWGGLVQAGGSLRLSCAASGSIFRRYAMGWYRQAPGKERELVAAISIGGRTYYADSVKGRFTISRDNAKNTVYFQMNSLKPEDTAVYYCAARESRSWGGGSWGQGTQVTVSS”: the “polyreactivity (PSR sort gate)” value is “high polyreactivity”.

As for “QVQLVESWGGLVQAGGSLRLSCAASGSIFYVNDMGWYRQAPGKERELVAAISSTGSTKYADSVKGRFTISRDNAKNTVYLQMNSLKPEDTAVSYCAKEPGHRFEFDYWGQGTQVTVSS”, the “polyreactivity (PSR sort gate)” value was “low polyreactivity”.

“QVQLVESWGGLVQAGGSLRLSCAASGSTFAQNTMGWYRQAPGKERELVATISDGGGSTYYADSVKGRFTISRDNAKNTVYLQMNSLKPEDTAVYYCNTDRFWPSYYWGQGTQVTVSS”: the “polyreactivity (PSR sort gate)” value is listed as “low polyreactivity”.

For the sequence “QVQLVESWGGLVQAGGSLRLSCAASGSTFGKYAMGWYRQAPGKERELVAAISYRGGRTFYADSVKGRFTISRDNAKNTVYLQMNSLKPEDTAVYYCAAYPGVSRGTGPRRYDYWGQGTQVTVSS”, the “polyreactivity (PSR sort gate)” value is listed as “high polyreactivity”.

On to “QVQLVESWGGLVQAGGSLRLSCAASGSTFSPYAMGWYRQAPGKEREMVATINRGGGSTNYADSVKGRFTISRDNAKNTVYLQMNSRKPEDTAVYYCARVNAAVGYYYRYEYWGHGTQVTVSS”, for which the “polyreactivity (PSR sort gate)” value is recorded as “high polyreactivity”.

On to “QVQLVESWGGLVQAGGSLRLSCAASGSTFYRYAMGWYRQAPGKERELVAAISRSGGNTFYADSVKGRFTISRDNAKNTVYLQMNSLKQEDTAVYYCAAEAHLACYYRYYGGYGYDYWGQGTQVTVSW”, for which the “polyreactivity (PSR sort gate)” value is recorded as “high polyreactivity”.

As for “QVQLVESWGGLVQAGGSLRLSCAASGSTITAKAMGWYRQAPGKERELVAAITKSGGDTYYADSVKGRFTISRDNAKNTVYLQMNSLKPEDTAVYYCAARIRPYAYRSLYGYWGQGTQVTVSS”, the “polyreactivity (PSR sort gate)” value is “low polyreactivity”.

Consider “QVQLVESWGGLVQAGGSLRLSCAASGSTMRYYAMGWYRQAPGKERELVAAISSRGGRTYYSDSVKGRFTISRDNAKNTVYLQMNSLKPEDTAVYYCAARARERYYWGQGNQVTVSS”, for which the “polyreactivity (PSR sort gate)” value was “high polyreactivity”.

For “QVQLVESWGGLVQAGGSLRLSCADSGRTFTVNAMGWYRQAPGKETEFVAAISGRSGRTSYADSVKGRFTISRDNAKNTVYLQMNCLKPEDTAVYYCNASGGYSTGSRYDYWGQGTQVTVSS”, the “polyreactivity (PSR sort gate)” value is “high polyreactivity”.

For the sequence “QVQLVESWGGLVQAGGSLRLSCADSGSIFGYYAMGWSRHAPGKETELVAAISSGGRTDYADSVKGRFTISRDNAKNTVYLQMNSRKQEDTAVYYCAALQRTGPYAGSSGYWGQGTQVTVSS”, the “polyreactivity (PSR sort gate)” value is given as “high polyreactivity”.

Consider “QVQLVESWGGLVQAGGSLRLSCVPPDSSSLTILWDGIDRRLGKKGSWLPVLTSRGVGTYYADSVKGRFTNSRDNAKNTFYLQMNSMKPEDSAVYYCNARYEVFYRYDYWGHGTQVTVSS”, for which the “polyreactivity (PSR sort gate)” value is given as “low polyreactivity”.

For the sequence “QVQLVESWGGLVQAGGSLRLTCAASGRILWFYSMGWYRQAPGKERELVAAISSSSGRTYYADSVKGRYTISRDNAKNTVSLQMNSLKPEDTAVYYCAATHAVARPLEYDYWGQGTQVTVSS”, the “polyreactivity (PSR sort gate)” value is “low polyreactivity”.

On to “QVQLVESWGGLVQAGGTLRLSCAASGGIFIDYTMGWYRQAPGKERELVAAITRGGSTYYADSVKGRFTISRDNAKNTVYLEMNSLIAEDTAVYYCAARANSPVGHNRFGYWGQGTQVTVSS”, for which the “polyreactivity (PSR sort gate)” value was “low polyreactivity”.

In the case of “QVQLVESWGGLVQAGGTLRLSCAASGRILYLNAMGWNRQAPGKEREFVAAISKSGGSTYYADSVKGRFTISRDNAMNSVYLQMNSLKPEDTAVYYCATRYRSAEYDFWGQGTQVTVSS”, the “polyreactivity (PSR sort gate)” value is “low polyreactivity”.

For “QVQLVESWGGLVQAGLSLRLSCAASGIMGWYRQAPGKERELVDAITYTGDSTFYADSVKGRFTISRDNPKNTVYVQINSLKAEDTAVYDCATKYGTSNWYNTYYYWGQGTQVTVSS”, the “polyreactivity (PSR sort gate)” value is recorded as “low polyreactivity”.

Consider “QVQLVESWGGVVQAGVSLRLSCAASGINFYSYAMGWYRQAPGKERELVAAISNNGGSTYADSVKGRFTISRDNAKNTVYLQMNSLKPEDTAVYYCAADPTGGVGFDGYYWGQGTQVSVSS”, for which the “polyreactivity (PSR sort gate)” value is recorded as “low polyreactivity”.

For “QVQLVESWGRLVQAGGSLRLTCAASGFIFSSYAMGWYRQAPGKERELVAAISQSGGRTYYADSVKGRFTISRDNAKNTVYLQMNSLKPEDTAVYYCNTLYTIGAVYYWGQGTQVTVSS”, the “polyreactivity (PSR sort gate)” value is given as “high polyreactivity”.

In the case of “QVQLVESWGVLVQAGGSLRLSCAASGSIIVNYDMGWYRQARGKERELVAAITWGGGRTYYADSVKRRFTISRDNAKNSVYLQMNSLKPEDTAVYYCAADFSWVINPYEYCGQGTQVTVSS”, the “polyreactivity (PSR sort gate)” value is on record as “low polyreactivity”.

As to “QVQLVETAAGLVKSGGSLPLSCAASGRIFKRYAMGWYRQAPGQARELVATINLSCGSTYYADSVKGRFTISRDNAKNTGYLQMNSRKPEDTAVYYCAYDAAGAPEGPYDYWGQGTQVTVSS”, the “polyreactivity (PSR sort gate)” value is “high polyreactivity”.

“QVQLVETAGGIVQAGGSLRLSCAASGRTNKYYAMGWYRQAPGKEREWVAVISWSGGSTYYADSVKGRFTISRDNAKNTVYLQMNSLKPEETAVYYCAARKRAQQGTRDHDYWGQGTQVTVSS”: the “polyreactivity (PSR sort gate)” value is on record as “high polyreactivity”.

Regarding “QVQLVETGAGLVQAGGSLRLSCAASGRTFDDNAMGWSRQATGEVRELVAAISSTGSTNYADSVKGRFTISRDNAKNTVYFQMNSLKPEDTAVYYCNTDRGHERAFYYWGQGTQVTVSS”, the “polyreactivity (PSR sort gate)” value is on record as “low polyreactivity”.

Turning to “QVQLVETGGCLVQAGGSLRLSCAASGSTFYLYAMGWNRQAPGKETDLVASISQSGGSTIYADSVKGRFTISRDNAKNTVYLHMNSLKPEDTAVYYFAAGAGYFRYPRSGVWYVTLYDYWGEGTQVTVSS”, the “polyreactivity (PSR sort gate)” value is on record as “high polyreactivity”.

Consider “QVQLVETGGGIVQAGGRLRLTCAASGSSFYSYAMGWYRQAPGKEMELVAAITTSGGNTLYADSVKGRFTISRDNAKNTVDLQMNSLKPEDTADYYCAADVFRGGDYEYDYWGQGTQVTVSS”, for which the “polyreactivity (PSR sort gate)” value is recorded as “low polyreactivity”.

Regarding “QVQLVETGGGIVQAGGSLRLSCAASGITFQSNTMGWYRQSPGKERELVAAITWTGGRTYYADSVKGRFTISRDNAKNTVYLQMNSLTPEDTAVYYCNADGYAICYNGKLDYWGQGTQVTVSS”, the “polyreactivity (PSR sort gate)” value is “high polyreactivity”.

For “QVQLVETGGGLVHAGGSLRLSCAASGSIFQGHAMGWYRQAPGKERELVAAISRNGGRTYYADSVKGRFTISRDNAKNTVYLQMNSLKPEDTAVYYCAAYHNVEYDYWGQGTQVTVSS”, the “polyreactivity (PSR sort gate)” value was “high polyreactivity”.

For the sequence “QVQLVETGGGLVHAGVSLRLSCAASGSILSLNAMGWYRQAPGKERELVAVISNCGGSTYYADSVKGRFTISRDNAKNTVYFQMKSLNPEDTAVYYCAVALKYQRRYYYWGQGTQVTVSS”, the “polyreactivity (PSR sort gate)” value was “high polyreactivity”.

In the case of “QVQLVETGGGLVQAGCSLRLSCASSGFIFVRNAMGRYRQAPGIERELVATINSGGGTNYADSVKWRFTISRDNAKNSVYFQMNSLKPDDTAVYYCAAGQTSPERYGLGYWGQGSQVTVSS”, the “polyreactivity (PSR sort gate)” value is listed as “low polyreactivity”.

The record behind these values is the nanobody polyreactivity screen of Harvey et al. (2022).
